Assay results as given in patent publication US20250270301A1 (GEN2 NEUROSCIENCE, published 2025).
Where two headings read alike, the source gives them in different places.

Experiments:
[1] = biological target: T1, full length recombinant human 2N4R tau (human, UniProt P10636 1-758); test: SPR SCK, IgG on Protein A, tau in flow
T1 construct: bought from rPeptide; pHrodo Red maleimide-labelled where it stands in uptake assays; also called tau1-441; full length tau
Procedure, shortened: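 Antibodies were captured to ~50 RU on a Protein A chip in HBS-EP+ with 1 mg/mL BSA at 25 °C. Tau was injected by single-cycle kinetics at 1.25–10 nM (2-fold), with 60 s association and 200 s dissociation. Signals were referenced to a mock-immobilized cell.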

[2] = biological target: T1, full length recombinant human 2N4R tau; test: SPR MCK, IgG on Protein A, tau in flow
Experimental: Slight variations in RMAX are considered likely to be due to differences in ligand capture and not reflective of significant variation in antibody binding characteristics.
22.2 Assessment of antibody binding to tau (Biacore MCK analysis): Binding of anti-tau hIgG1 to full length recombinant 2N4R tau (Rpeptide; SEQ ID NO: 2) was assessed using the Biacore T200 (GE Healthcare, Chicago, IL, USA) running Biacore T200 Evaluation Software V2.0.1. hIgG1 were immobilised on a Protein A capture sensor chip in running buffer (HBS-EP+ buffer containing 1 mg/mL BSA) at 25° C., captured to ˜50 RU at […]. For multi-cycle kinetics experiments, recombinant 2N4R tau was flowed at concentrations ranging from 0.39 nM to 12.5 nM in running buffer at 40 μL/min, with an association time of 60 s and a dissociation time of 200 s. Curves were compared to a reference cell that was mock immobilized (no antibody present).

[3] = biological target: aggregated (oligomeric) P301S 2N4R tau, pHrodo-labelled (human, UniProt P10636 1-758, pHrodo Red maleimide label); test: cell-based or functional assay
Chain of aggregated (oligomeric) P301S 2N4R tau, pHrodo-labelled (P10636 other isoform, or with tags, fused parts or gaps P301S P301S): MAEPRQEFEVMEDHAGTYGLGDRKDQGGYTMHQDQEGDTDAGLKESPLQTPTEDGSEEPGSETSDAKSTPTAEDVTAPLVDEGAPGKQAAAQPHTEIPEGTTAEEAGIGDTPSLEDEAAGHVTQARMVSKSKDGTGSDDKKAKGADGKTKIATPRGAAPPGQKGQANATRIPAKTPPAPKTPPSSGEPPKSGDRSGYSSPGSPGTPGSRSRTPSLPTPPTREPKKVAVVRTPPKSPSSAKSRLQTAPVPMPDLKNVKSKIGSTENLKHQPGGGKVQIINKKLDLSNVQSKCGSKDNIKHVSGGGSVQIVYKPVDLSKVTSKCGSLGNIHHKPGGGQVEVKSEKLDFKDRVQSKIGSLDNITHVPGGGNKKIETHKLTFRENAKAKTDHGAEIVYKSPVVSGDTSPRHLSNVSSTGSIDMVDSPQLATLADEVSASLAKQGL

[4] = biological target: monomeric P301S 2N4R tau, pHrodo-labelled (human, UniProt P10636 1-758, pHrodo Red maleimide label); test: cell-based or functional assay
Chain of monomeric P301S 2N4R tau, pHrodo-labelled (P10636 other isoform, or with tags, fused parts or gaps P301S P301S): as above

Bovine serum albumin [5] = biological target: T2, Bovine serum albumin (bovine, UniProt P02769 25-607); test: ELISA on 1% BSA, HEK supernatant, anti-human IgG-HRP, n=1
T2 construct: also called BSA
T2 sequence (P02769 25-607 limits assumed): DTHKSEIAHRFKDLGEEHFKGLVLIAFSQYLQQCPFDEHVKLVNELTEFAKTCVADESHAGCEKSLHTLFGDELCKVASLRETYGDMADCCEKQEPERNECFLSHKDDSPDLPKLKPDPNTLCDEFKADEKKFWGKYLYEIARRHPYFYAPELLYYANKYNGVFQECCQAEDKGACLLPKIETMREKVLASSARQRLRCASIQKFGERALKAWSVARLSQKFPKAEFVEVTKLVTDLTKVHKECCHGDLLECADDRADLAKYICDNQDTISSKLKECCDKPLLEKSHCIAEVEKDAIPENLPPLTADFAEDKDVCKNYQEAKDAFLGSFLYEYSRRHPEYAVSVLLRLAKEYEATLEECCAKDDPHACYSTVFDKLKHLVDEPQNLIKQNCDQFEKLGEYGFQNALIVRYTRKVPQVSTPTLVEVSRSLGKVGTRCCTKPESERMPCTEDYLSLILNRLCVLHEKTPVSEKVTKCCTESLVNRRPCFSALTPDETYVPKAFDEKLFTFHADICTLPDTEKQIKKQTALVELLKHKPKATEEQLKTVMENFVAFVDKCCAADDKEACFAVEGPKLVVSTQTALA
Procedure, shortened: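 Wells coated with antigen, blocked 1 h RT in 5% milk/TBS; HEK293 transient-transfection supernatants applied at 1:100 in 1% BSA/TBS for 1 h RT. Bound hIgG1 detected with anti-human IgG-HRP (1:2000), TMB 15 min, acid stop, OD450; single replicate.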

Bovine serum albumin [6] = biological target: T2, Bovine serum albumin; test: as above; remark: listed apart in the source
[7] = biological target: T1, full length recombinant human 2N4R tau; test: SPR SCK, IgG on Protein A, tau in flow; remark: listed apart in the source

T1 sequence (P10636 other isoform, or with tags, fused parts or gaps limits assumed): as the sequence (P10636 other isoform, or with tags, fused parts or gaps P301S P301S) above, with S301P counted along it

B1: #44 VH3VK3 humanised hIgG1 (antibody, V domains shown)
VH: QVQLQESGPGLVKPSETLSLTCTVSGIDLSSYAMAWVRQAPGKGLEWIGCIDRRGGTFYASWVKGRFTISKTSTTVDLQMTSLTAEDTATYFCARDSGAFDPWGQGTLVTVSS
VL: DIQMTQSPSSLSASVGDRVTITCQASQSVYDNYLAWYQQKPGQPPKLLIHAASNLASGVPSRFKGSGSGTEFTLTISSLQPDDFATYYCLGEFSCTTTDCNVFGGGTKVEIK
notes: also called VH3Vκ3; Clone VH3VK3 (A)
Kd [1]: 7.71 nM | Relative KD (to VH0VK0) [1]: 2.01 | koff [1]: 0.0341 s⁻¹ | kon [1]: 4.43e+06 M⁻¹ s⁻¹ | Kd [2]: 5.7 nM | Relative KD (to VH0VK0) [2]: 1.75 | koff [2]: 0.0927 s⁻¹ | kon [2]: 1.63e+07 M⁻¹ s⁻¹ | increase of aggregated tau uptake into human iPSC-derived microglia [3]: 77.7% | inhibition of aggregated tau uptake into human iPSC-derived astrocytes [3]: 46.4% | inhibition of aggregated tau uptake into human iPSC-derived neurons [3]: 30.6% | increase of monomeric tau uptake into human iPSC-derived microglia [4]: 16.1% | inhibition of monomeric tau uptake into human iPSC-derived astrocytes [4]: 85.2% | inhibition of monomeric tau uptake into human iPSC-derived neurons [4]: 48.4% | binding result (Bovine serum albumin [5]): no binding (tested: supernatant 1:100)

B2: #44 VH3VK4 humanised hIgG1 (antibody, V domains shown)
VH: QVQLQESGPGLVKPSETLSLTCTVSGIDLSSYAMAWVRQAPGKGLEWIGCIDRRGGTFYASWVKGRFTISKTSTTVDLQMTSLTAEDTATYFCARDSGAFDPWGQGTLVTVSS
VL: DIQMTQSPSSLSASVGDRVTITCQASQSVYDNYLAWYQQKPGQPPKLLIHAASNLASGVPSRFSGSGSGTEFTLTISSLQPDDFATYYCLGEFSCTTTDCNVFGGGTKVEIK
notes: also called VH3Vκ4; Clone VH3VK4 (B)
Kd [1]: 7.02 nM | Relative KD (to VH0VK0) [1]: 1.83 | koff [1]: 0.043 s⁻¹ | kon [1]: 6.12e+06 M⁻¹ s⁻¹ | Kd [2]: 6.57 nM | Relative KD (to VH0VK0) [2]: 2.02 | koff [2]: 0.0618 s⁻¹ | kon [2]: 9.4e+06 M⁻¹ s⁻¹ | increase of aggregated tau uptake into human iPSC-derived microglia [3]: 83.9% | inhibition of aggregated tau uptake into human iPSC-derived astrocytes [3]: 45% | inhibition of aggregated tau uptake into human iPSC-derived neurons [3]: 33.3% | increase of monomeric tau uptake into human iPSC-derived microglia [4]: 80.3% | inhibition of monomeric tau uptake into human iPSC-derived astrocytes [4]: 87.6% | inhibition of monomeric tau uptake into human iPSC-derived neurons [4]: 43.1% | binding result (Bovine serum albumin [5]): no binding (tested: supernatant 1:100)

B3: #44 VH4VK2 humanised hIgG1 (antibody, V domains shown)
VH: QVQLQESGPGLVKPSETLSLTCTVSGIDLSSYAMAWVRQAPGKGLEWIGCIDRRGGTFYASWVKGRFTISKDTSKTTVDLQMTSLTAEDTATYFCARDSGAFDPWGQGTLVTVSS
VL: QIVMTQSPSSLSASVGDRVTITCQASQSVYDNYLAWYQQKPGQPPKLLIHAASNLASGVPSRFKGSGSGTEFTLTISSLQPDDFATYYCLGEFSCTTTDCNVFGGGTKVEIK
notes: also called VH4Vκ2; Clone VH4VK2 (C)
Kd [1]: 6.86 nM | Relative KD (to VH0VK0) [1]: 1.79 | koff [1]: 0.0247 s⁻¹ | kon [1]: 3.6e+06 M⁻¹ s⁻¹ | Kd [2]: 4.39 nM | Relative KD (to VH0VK0) [2]: 1.35 | koff [2]: 0.0401 s⁻¹ | kon [2]: 9.14e+06 M⁻¹ s⁻¹ | increase of aggregated tau uptake into human iPSC-derived microglia [3]: 97.6% | inhibition of aggregated tau uptake into human iPSC-derived astrocytes [3]: 48% | inhibition of aggregated tau uptake into human iPSC-derived neurons [3]: 41.9% | increase of monomeric tau uptake into human iPSC-derived microglia [4]: 71.4% | inhibition of monomeric tau uptake into human iPSC-derived astrocytes [4]: 84.6% | inhibition of monomeric tau uptake into human iPSC-derived neurons [4]: 50% | binding result (Bovine serum albumin [5]): no binding (tested: supernatant 1:100)

B4: #44 VH4VK3 humanised hIgG1 (antibody, V domains shown)
VH: QVQLQESGPGLVKPSETLSLTCTVSGIDLSSYAMAWVRQAPGKGLEWIGCIDRRGGTFYASWVKGRFTISKDTSKTTVDLQMTSLTAEDTATYFCARDSGAFDPWGQGTLVTVSS
VL: DIQMTQSPSSLSASVGDRVTITCQASQSVYDNYLAWYQQKPGQPPKLLIHAASNLASGVPSRFKGSGSGTEFTLTISSLQPDDFATYYCLGEFSCTTTDCNVFGGGTKVEIK
notes: also called VH4Vκ3; Clone VH4VK3 (D)
Kd [1]: 6.68 nM | Relative KD (to VH0VK0) [1]: 1.74 | koff [1]: 0.034 s⁻¹ | kon [1]: 5.09e+06 M⁻¹ s⁻¹ | Kd [2]: 5.14 nM | Relative KD (to VH0VK0) [2]: 1.58 | koff [2]: 0.0403 s⁻¹ | kon [2]: 7.83e+06 M⁻¹ s⁻¹ | increase of aggregated tau uptake into human iPSC-derived microglia [3]: 90.5% | inhibition of aggregated tau uptake into human iPSC-derived astrocytes [3]: 49.9% | inhibition of aggregated tau uptake into human iPSC-derived neurons [3]: 36.3% | increase of monomeric tau uptake into human iPSC-derived microglia [4]: 60.2% | inhibition of monomeric tau uptake into human iPSC-derived astrocytes [4]: 87.5% | inhibition of monomeric tau uptake into human iPSC-derived neurons [4]: 41.8% | binding result (Bovine serum albumin [5]): no binding (tested: supernatant 1:100)

B5: #44_VH4VK4_H03/pVL (antibody, V domains shown)
VH: QVQLQESGPGLVKPSETLSLTCTVSGIDLSSYAMAWVRQAPGKGLEWIGCIDRRGGTFYASWVKGRFTISKDTSKTTVDLQMTSLTAEDTATYFCARDAGAFDVWGQGTLVTVSS
VL: DIQMTQSPSSLSASVGDRVTITCQASQSVYDNYLAWYQQKPGQPPKLLIHAASNLASGVPSRFSGSGSGTEFTLTISSLQPDDFATYYCLGEFSCTTTDCNVFGGGTKVEIK
notes: also called Clone VH4_H03; #44_VH4_H03
binding result (Bovine serum albumin [6]): no binding (tested: 30 ng/ml (legend 1:100)) | Fold change (KD, to pVH/pVL) [7]: 1.03 | Kd [7]: 6.4 nM | koff [7]: 0.0151 s⁻¹ | kon [7]: 2.36e+06 M⁻¹ s⁻¹

B6: #44_VH4VK4_H05/pVL (antibody, V domains shown)
VH: QVQLQESGPGLVKPSETLSLTCTVSGIDLSSYAMAWVRQAPGKGLEWIGCIDRRGGTFYASWVKGRFTISKDTSKTTVDLQMTSLTAEDTATYFCARDAGHFDYWGQGTLVTVSS
VL: DIQMTQSPSSLSASVGDRVTITCQASQSVYDNYLAWYQQKPGQPPKLLIHAASNLASGVPSRFSGSGSGTEFTLTISSLQPDDFATYYCLGEFSCTTTDCNVFGGGTKVEIK
notes: also called Clone VH4_H05; #44_VH4_H05
binding result (Bovine serum albumin [6]): no binding (tested: 30 ng/ml (legend 1:100)) | Fold change (KD, to pVH/pVL) [7]: 1.36 | Kd [7]: 4.84 nM | koff [7]: 0.0203 s⁻¹ | kon [7]: 4.18e+06 M⁻¹ s⁻¹

B7: #44_VH4VK4_H07/pVL (antibody, V domains shown)
VH: QVQLQESGPGLVKPSETLSLTCTVSGIDLSSYAMAWVRQAPGKGLEWIGAIDAAGNTFYASWVKGRFTISKDTSKTTVDLQMTSLTAEDTATYFCARDSGAFDPWGQGTLVTVSS
VL: DIQMTQSPSSLSASVGDRVTITCQASQSVYDNYLAWYQQKPGQPPKLLIHAASNLASGVPSRFSGSGSGTEFTLTISSLQPDDFATYYCLGEFSCTTTDCNVFGGGTKVEIK
notes: also called Clone VH4_H07; #44_VH4_H07
binding result (Bovine serum albumin [6]): no binding (tested: 30 ng/ml (legend 1:100)) | Fold change (KD, to pVH/pVL) [7]: 0.9 | Kd [7]: 7.35 nM

B8: #44_VH4VK4_H08/pVL (antibody, V domains shown)
VH: QVQLQESGPGLVKPSETLSLTCTVSGIDLSSYAMAWVRQAPGKGLEWIGAIDAAGRTFYASWVKGRFTISKDTSKTTVDLQMTSLTAEDTATYFCARDSGAFDPWGQGTLVTVSS
VL: DIQMTQSPSSLSASVGDRVTITCQASQSVYDNYLAWYQQKPGQPPKLLIHAASNLASGVPSRFSGSGSGTEFTLTISSLQPDDFATYYCLGEFSCTTTDCNVFGGGTKVEIK
notes: also called Clone VH4_H08; #44_VH4_H08
binding result (Bovine serum albumin [6]): no binding (tested: 30 ng/ml (legend 1:100)) | Fold change (KD, to pVH/pVL) [7]: 0.26 | Kd [7]: 25.7 nM | koff [7]: 0.011 s⁻¹ | kon [7]: 426000 M⁻¹ s⁻¹

B9: #44_VH4VK4_H09/pVL (antibody, V domains shown)
VH: QVQLQESGPGLVKPSETLSLTCTVSGIDLSSYAMAWVRQAPGKGLEWIGAIDARGNTFYASWVKGRFTISKDTSKTTVDLQMTSLTAEDTATYFCARDSGAFDPWGQGTLVTVSS
VL: DIQMTQSPSSLSASVGDRVTITCQASQSVYDNYLAWYQQKPGQPPKLLIHAASNLASGVPSRFSGSGSGTEFTLTISSLQPDDFATYYCLGEFSCTTTDCNVFGGGTKVEIK
notes: also called Clone VH4_H09; #44_VH4_H09
binding result (Bovine serum albumin [6]): no binding (tested: 30 ng/ml (legend 1:100)) | Fold change (KD, to pVH/pVL) [7]: 0.67 | Kd [7]: 9.85 nM | koff [7]: 0.032 s⁻¹ | kon [7]: 3.25e+06 M⁻¹ s⁻¹

B10: #44_VH4VK4_H10/pVL (antibody, V domains shown)
VH: QVQLQESGPGLVKPSETLSLTCTVSGIDLSSYAMAWVRQAPGKGLEWIGAIDARGRTFYASWVKGRFTISKDTSKTTVDLQMTSLTAEDTATYFCARDSGAFDPWGQGTLVTVSS
VL: DIQMTQSPSSLSASVGDRVTITCQASQSVYDNYLAWYQQKPGQPPKLLIHAASNLASGVPSRFSGSGSGTEFTLTISSLQPDDFATYYCLGEFSCTTTDCNVFGGGTKVEIK
notes: also called Clone VH4_H10; #44_VH4_H10
binding result (Bovine serum albumin [6]): no binding (tested: 30 ng/ml (legend 1:100)) | Fold change (KD, to pVH/pVL) [7]: 0.66 | Kd [7]: 9.95 nM

B11: #44_VH4VK4_H11/pVL (antibody, V domains shown)
VH: QVQLQESGPGLVKPSETLSLTCTVSGIDLSSYAMAWVRQAPGKGLEWIGAIDARGATFYASWVKGRFTISKDTSKTTVDLQMTSLTAEDTATYFCARDSGAFDPWGQGTLVTVSS
VL: DIQMTQSPSSLSASVGDRVTITCQASQSVYDNYLAWYQQKPGQPPKLLIHAASNLASGVPSRFSGSGSGTEFTLTISSLQPDDFATYYCLGEFSCTTTDCNVFGGGTKVEIK
notes: also called Clone VH4_H11; #44_VH4_H11
binding result (Bovine serum albumin [6]): no binding (tested: 30 ng/ml (legend 1:100)) | Fold change (KD, to pVH/pVL) [7]: 1.16 | Kd [7]: 5.65 nM
